According to the supplement of paper PMC12455559:

Experiment: purified protein yield per well (BCA); higher = higher soluble expression
How it was run: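 Expression was done in E. coli C41(DE3), using 2 mL autoinduction cultures with 100 µg/mL kanamycin incubated at 37 °C for 2 h and at 18 °C for 40 h. Protein was purified on Ni-charged magnetic beads and released by SUMO protease cleavage. Yield of purified protein per well was measured with the Pierce Rapid Gold BCA kit; values below 25 ug (0.1 mg/mL) are below detection.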

Sequence	purified protein yield per well
VEIGPAPTSTSLNSDGSFAVSSASVSSSACGSGCAGGTVYYPNTAGSYGVIAVCPGFTNTSSAISWFARRMATHGFVTIAMNTNSRYDFPASRATQLRAVLNYLVNSSSSTIRSRIRSADRGVSGYSMGGGGTLLASRDDSTLKTGVPMAPYNSGTISGVNVPQMIIGGSNDSIAPVSSMARPFYNNIPSTVKKALAVLNGASHLTFTSYDERAARYGVAFAKRFADGDTRYTPFLCGAEHTAYATSSRFTEYSSNCPY [ESM020]	< 25 µg
HGFNGGYIYYPTDTSQTFGAVAIVPAYTALFADEEAWMGPRLASFGFVVIGIETNSREDWDRARGAQLLAGLDYLTQHSAVRTRIDARRLAVIGHSMGGGGAFAAAARRPSLRAVVGLTPYFPSGDLATIRVPTLIIGGQNDTTVTPSYLERLYASLPTRTPSAYVMLADADHLFPTKPNPDQMRVLVPWLKIFVDKDVRYTRFLCPLADRSGISQYQVTCPLVPTV [TEP043]	< 25 µg
TQSGPYQVKRYREKDGLRNGPRYRGATVYYPTDARGLLASIVIVPGYISPERSIRAWGPFYASHGIVAMTIGTNRPQDAPAARRRALLDAITSLKLENHRANSPLKGRLAVTRIAVSGWSMGGGGALEAATRAPQLKAVVALCPWNPYQTFSHRVPVLFLAGQRDRLAPVSDNALRHYEKTPASTPKLLFEVRNEGHWVANTPQGGNGAIGRLALS [TEP155]	< 25 µg
GPFAVSSVTVPAGSGPGFNDGTIYYPTDTSQGTFGAVVIMPGFVAVQGQIAWYGPRLASQGFVVMTMDSNALWDFPSDRSRQQLAALNYLTTKSPVKSRIDPNRLALMGWSMGGGGTLESAAANPSLKAAIPLAPWDITNPGDQISVPTMIFGADGDTVAPVSTFTRPAYDALTNTHDKAFVELKGADHFTFASPNTTVAKYSISWLKRFVDNDTRYDQFLCPIPN [TEP056]	< 25 µg
ADNPYERGPNPTESSIEATRGHYSVSEESVSSLAPGFGGGTIYYPTTRTDGTFGAVAVVPGYTASESSIEWLGARVASQGFVVFTIDTTTRLDQPAQRGDQLLAALDYLTERSDVADRVDPSRLAVMGHSMGGGGTLEAAKDRPSLKAIIPMTPWNLDKTWGDVEVPMLDFGAEYDSIASPASHAKPFYNTHGGEKMYIELNSAGHFAPNSSNTTIAKYSISWLKRWVDNDTRYTQFLCPTPTSWLYIEESASTCGF [TEP142]	< 25 µg
MGSNPYQRGPDPTTSSLEASRGPFSVASFTVSRPSGYGAGTVYYPTNAGGKVGAIAIVPGYTARQSSINWWGPRLASHGFVVITIDTNSTLDQPSSRSSQQMAALRQVVSLSGTSSSPIYNKVDTSRLGVMGWSMGGGGSLISARNNPSLKAAAPQAPWNSSKNFSSVTVPTLIIACENDTIAPVNSHALPFYNSMSRNPKQYLEINGGSHSCANSGNSNQALIGKKGVAWMKRFMDNDTRYSSFACSNPNSSSVSDFRTENCSAS [TEP184]	< 25 µg
QTTAPTSASLNATAGPLSIASASVSSLAASGFGGGTIYYPTTSGRFGVVAISPGYTASQSTIAWLGRRMASHGFVVITIDTNTTLDYPESRATQLRAALDHVINRASTTVRNKVDPARRAVAGHSMGGGGSLIAAEADSTLKAAYPMTPWNISENFSRVRVPTMIIGADGDTIAPVISHARPFYGSIPNTTFKAYGELNNASHFAPNTTNTPIGRYGVAWMKRFVDGDTRYSTFLCGAEHNRYNTSLVFDQYRSNCPY [ESM079]	< 25 µg
MASITNPGPYSVSLLIEGVDDIRNGPDYDGATIYYPSNGVPPYAGIAIIPGYCGVETDIENWGPFYASHGIIAITLGTNNPCADWPAVRALALLDAIETIKSENTREGSPLNGKVDVNSFAVSGWSMGGGGAELAASIDPSLKAVVGLCPWLDLNGFETSDLIHDVPVLIFTGQNDDIAGSAEYGYMHYTNTPNSTDKLYFEIENEGHEAANAPNMAGGEKGIYALSWLTI [TEP051]	< 25 µg
YRPVVAFRVKVRKLERAIGESMASVARMQGRYLRASTLTAVAAATIVGCYLRGPDPTVELVESPVGPFEVETVLVPSTVDGFGGGEIYDPVDEDYSFGGIAVVPGVGIDRSRLEWYGPRLASHGFVVFLIETDSVWDVPDQRGEQLIAALDYMTTQSAVVDVVDPKRLAVMGYSFGGGGVIHATRLKPDLKAAIPLAMWFWDNDQSASTVPHLLISCEIDFENDAHTGAVYESRPASTARAMMEIAGADHQCIKQDGSTEQQ [TEP130]	< 25 µg
QDNSQGRYRPEGRQVGLAIGREFDERLYEVRTYEPEVGAEAFAGAMVFYPLTLSFDPPNGAVAFVPGFRAPASVYEWWGPALASLGYSVFILETNTPTDALAARADALIAAVDLIKAENQNPDAPVANKIDPEKIAIMGHSMGGGASLVAATQMGDSIKAVIPLALYCCEPGQSFSGDYGSLTLPTMIIASAEDEVAPPAEHAKLLYDSIGGSKTYVEFARGDHMFISNSGDQKATLGRFVLAFLKDILDGR [TEP019]	< 25 µg
NTNVPSQACNLTNANGCDSIAILNLTINQADTLYTNIITCDNYTWDGTTYTNSGIYNNVYTNSNGCDSILLNLITIPGPFSVSNIDESSGIRNGLDYDGATIYYPDNGNYLSSIVIVPGFMNTELTVQNWGPFLASYGIVTMTIGTNALTDSEFQRRDALIDAIISLKDENNRSLSPLFGRLNTSSISVGGFSKGGGGAQLVASLDSSIKAIVALYPFIDNPIVSDFDHNIPTFIISGQLDVIAPPAQHADIHYDLIPNSTKKLKYELSVGTHDALSGPYGGLNQVGERVLSFLGLFLENDSCYCPLLDITPSLSSRSKSAPLTKSLMILPAATDALRAGSKSTSAKLAEAVA [TEP057]	< 25 µg
GASAPAANPYERGPAPTEQALLAPLGSFTYSTVVVPRSQVTGFGGGTIYYPDDTSQGTYGGVVAVPGFVSPEGAVAWLGPHMASRGFVVFTIATTSPFDQPTARGKQLLAALDHLTQRTPDAVRKRLDPARLAVTGHSMGGGGALYASGARPGIKAAIPLAPYNQDKTWNEVATPTLVVGGSADQIASVDKHARPFYNSLTGARDRGLLNVAAADHGDFTQENSITGRYAAAWLKRFVDEDTRYDQYLCPATGGPGVTEYSASCPLS [TEP151]	< 25 µg
HAPAHAPAHQPVVAHHHAPFAVRTTVVPKTAVKAFGGGVIYTPQDTGKAVLGAVVITPGFTDTNADEKELAELVASQGFVAFAIDTLDTGDLPDQRATEILAAADYLTGQSAVRSEVSAKDVGLIGYSFGGGGTMQAAQARPSIKAAIGLMPFDFPPASDPNAQYPAYPKLTTPTLVITGQKDDVADPADFGKPAYDSIPGGTPKQYLELKGLDHYAGEHTPVAAIRNAVTAFLKRYLDGNSAYAKLICPAPKVGGPITASYSSCPKG [ESM190]	< 25 µg
GAAGNPYERGPDPTESSIEAPRGHYAVSETSVSALGVTGFGGGTIYYPTSTADGTFGAVAIAPGYTSLQSSIAWLGPRLASQGFVVITIDTRTTLDQPAGRGAQLLAALDYLTRRSSVRNRIDSGRLGVMGHSMGGGGSLEAAKGRPSLQAAIPLTGWNLDKTWPEIRVPTLLVGADGDTIAPVATHSQPFYQSLPSTLDRAYLELNNATHFTPNRPDTTIAKYSVSWLKRFIDNDTRYEQFLCPLPRPSRTIEEYRGNCPHTS [TEP007]	< 25 µg
QVGPAPSSSSLNATAGPFAVSTSNVILARGFGGGTIYYPSTSGLYGVVAISPGFTATESSVAWLGRRMATHGLVVITINTNTTLDQPASRATQLMAALNYVVNSASSTVRSRVDSTKLAVAGHSMGGGGALIAAEDNPTLKASLPLTPWNLSTSFTRVRVPTLIVGADGDSVASVTVHARPFYASLPASTFKAYAELNLASHFTPNSTNTPIGRYGVAWMKRFVDADTRYSPFLCGAEHNAYNTALVFDRYNQNCPY [ESM153]	< 25 µg
IYTMVDTLSLHDALPISQYRKIPDSKYHLFIKRFYKGFLNLSLWEVRYMSNRLFRARRTVFSVLILFAFMISFVAAIPGVSYASPPIVRYDYAPGKYSGNGPYSYSTYQLPGWSHGATVYYPTNASAPFSGIVFCPPYTGTQIMFRDWGPFFASHGIVLVTMDTSSILISVDERAVEQRTVLNLLKAENSRSGSPLYQKLDTDRVGAMGWSMGGGATWINSAEYPGLKTAMSLAGHNLTAININSKGFGTQCPTIIFCGALDTTYLGGMLQSETVYYNIPSGVPKVYYEVGTAGHFVWGGPTDANDHVAELALAFQKTFLDGDDRWEGFIEKPRFDYLSTFRSRN [TEP185]	< 25 µg
VASPYQRGPDPTVASIEASRGPFAIAQTTIAASSVRGFRGGTVYYPTSTAEGTFGAVAISPGYTATQSSVAWLGPRLASQGFVVVTIDTLSRYDQPASRGTQLLAALDHLTTASSVRTRIDRNRLAVMGHSMGGGGSLSAANTRPTLQAAIPLTGWHTVKNWSGVRVPTLVVGAENDSIAPVTSHSEPFYTSLPSTLDKAYLELNAAGHSAPTSSNVTVAKYSISWLKRFVDDDTRYEQFLCPAPRGTAIQEYRDTCPHS [DP083]	< 25 µg
ATTSFRRGPDPSAASIRAANGPFAIAKTTVARQAGFGGGDIYAPTDTSRGTFGAVAIAPGFTATRSSLAWLAPRIASQGFVVFNIDTLTTSDQPAQRGRELLAALDFLTGSSTARAKIDRTRLAVMGHSMGGGGTLEAAKARPSLKAAVPLTPWDLTKNFATVKVPTMIIGAQSDTIAPPSRFSDQFFASLPAATNKGYLELAGASHFAPNIPNPTIASTSIAWLKRFVDGDTRFEQFLCPGPSSNGISEYQTNCPHKA [ESM129]	< 25 µg
CASVASPPAATLAALSGNGSYEVMTYTDFPDVPEFGDATIYYPQDAPAPVGGVAIAPGFTEVQSHISWWGPRLASHGFAVLVLDTNDRRDRPDLRADALIAAVTLLRAENSRSGSPLNSRIDVGKMAIMGHSMGGGGVLLAANEHSDQIQAAIPFTPWVPDVEFGNITVPTLVIAGSADRIANVTDHAWRHF [TEP113]	< 25 µg
FDPPNGAVIMVPGFRGTPPVYDWWGPMLASVGVITMIIETNTPEDSLEARKNAFIAGVEFLSGENDNPASPIRDKLDTSNIAIMGHSLGGGASLRAAEELGSRIKAVIPLTPYCCELGQSFEGNLSGVSVPTLIIASAEDAIAPPAEHARMLYDSVNAATEKVYLEFATGNHMLPSNSGQDLETLGTYVYAFIKENFTDNPRYADFIFGDGEEQFSTYEISQ [TEP136]	< 25 µg
FPAVVLAVSKQPHTDTRALTDEIKTALREIEPSLPAEITVNAELFQMKRFIDTGVWNVGEALAIGAVVVQPTGAGAQTGEFRKGPDPTEASVRASSGTFTTTTASVSSLVAGFGGGTIHYPTDTSQGTYGAIAFAPGFTASSASYSWIGPRIASQGFVVFLINTDSRYDFPASRATQLQNALNYLVNSSVAASRIDLNRLAVG [TEP030]	< 25 µg
YYPTSTSDGTFGAVVVTPGFTATESSMAWLGPRLASQGFVVFTIDTLTTLDQPDSRGRQMLAALDYLTERSSARTRIDGTRLGVIGHSMGGGGTLEAAKSRPSLKAAIPLTPWNLDKTWPEVTTPTLVVGADGDTVAPVATHAKPFYSSLPSSTDRAYLELNNATHFAPN [TEP120]	< 25 µg
